According to patent publication US20030013150:

Biological target: plasminogen
Sequence (P00747 20-810): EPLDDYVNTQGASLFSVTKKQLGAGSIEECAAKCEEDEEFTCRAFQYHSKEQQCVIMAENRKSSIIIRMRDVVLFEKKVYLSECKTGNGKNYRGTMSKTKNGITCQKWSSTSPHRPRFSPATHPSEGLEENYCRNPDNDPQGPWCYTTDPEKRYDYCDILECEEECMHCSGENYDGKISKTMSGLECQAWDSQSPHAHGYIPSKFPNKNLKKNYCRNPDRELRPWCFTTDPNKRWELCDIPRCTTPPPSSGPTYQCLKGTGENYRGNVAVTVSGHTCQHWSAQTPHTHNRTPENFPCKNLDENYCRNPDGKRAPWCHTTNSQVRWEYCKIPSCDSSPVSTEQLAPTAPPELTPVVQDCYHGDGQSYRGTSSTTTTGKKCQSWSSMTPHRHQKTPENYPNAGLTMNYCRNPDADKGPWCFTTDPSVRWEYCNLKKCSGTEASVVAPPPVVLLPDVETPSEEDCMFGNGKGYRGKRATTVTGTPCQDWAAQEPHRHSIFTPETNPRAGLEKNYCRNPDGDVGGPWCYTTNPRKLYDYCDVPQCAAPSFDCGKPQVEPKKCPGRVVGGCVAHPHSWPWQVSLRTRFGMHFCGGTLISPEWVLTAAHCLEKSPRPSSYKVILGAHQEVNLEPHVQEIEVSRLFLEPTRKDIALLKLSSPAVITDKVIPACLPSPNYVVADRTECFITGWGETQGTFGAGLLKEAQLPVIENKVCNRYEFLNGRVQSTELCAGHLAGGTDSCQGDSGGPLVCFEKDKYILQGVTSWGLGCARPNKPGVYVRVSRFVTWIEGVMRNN

B1: recombinant-K2S (r-K2S) expressed in non-gpIII fusion form in E. coli XM[K2S] (protein)
chain: SEGNSDCYFGNGSAYRGTHSLTESGASCLPWNSMILIGKVYTAQNPSAQALGLGKHNYCRNPDGDAKPWCHVLKNRRLTWEYCDVPSCSTCGLRQYSQPQFRIKGGLFADIASHPWQAAIFAKHRRSPGERFLCGGILISSCWILSAAHCFQERFPPHHLTVILGRTYRVVPGEEEQKFEVEKYIVHKEFDDDTYDNDIALLQLKSDSSRCAQESSVVRTVCLPPADLQLPDWTECELSGYGKHEALSPFYSERLKEAHVRLYPSSRCTSQHLLNRTVTDNMLCAGDTRSGGPQANLHDACQGDSGGPLVCLNDGRMTLVGIISWGLGCGQKDVPGVYTKVTNYLDWIRDNMRP
copolymerized plasminogen polyacrylamide gel electrophoresis (clearing zones): Transparent areas of serine protease digested plasminogen were observed only in the ammonium sulfate precipitated culture supernatants of E. coli XM[K2S] at 34 and 37 kDa postions | fibrinogen-dependent enzymatic activity (amidolytic assay, plasminogen and S-2251): The culture supernatant r-K2S gave the fibrinogen-dependent enzymatic activity of 7 IU/ml | fibrinogen-dependent enzymatic activity of the periplasmic r-K2S preparation (amidolytic assay, plasminogen and S-2251): notably low enzymatic activity, which was below the sensitivity of the test (0.25 IU/ml)

B2: standard melanoma tPA 86/670 (protein)
chain: SYQVICRDEKTQMIYQQHQSWLRPVLRSNRVEYCWCNSGRAQCHSVPVKSCSEPRCFNGGTCQQALYFSDFVCQCPEGFAGKCCEIDTRATCYEDQGISYRGTWSTAESGAECTNWNSSALAQKPYSGRRPDAIRLGLGNHNYCRNPDRDSKPWCYVFKAGKYSSEFCSTPACSEGNSDCYFGNGSAYRGTHSLTESGASCLPWNSMILIGKVYTAQNPSAQALGLGKHNYCRNPDGDAKPWCHVLKNRRLTWEYCDVPSCSTCGLRQYSQPQFRIKGGLFADIASHPWQAAIFAKHRRSPGERFLCGGILISSCWILSAAHCFQERFPPHHLTVILGRTYRVVPGEEEQKFEVEKYIVHKEFDDDTYDNDIALLQLKSDSSRCAQESSVVRTVCLPPADLQLPDWTECELSGYGKHEALSPFYSERLKEAHVRLYPSSRCTSQHLLNRTVTDNMLCAGDTRSGGPQANLHDACQGDSGGPLVCLNDGRMTLVGIISWGLGCGQKDVPGVYTKVTNYLDWIRDNMRP
copolymerized plasminogen polyacrylamide gel electrophoresis (clearing zones): The positive control lane of standard melanoma tPA also demonstrated enzymatic activity at 66 and 72 kDa positions
